For four molecules, Kd, binding result and stoichiometry N results are on record in publication PMC4791427, “Structural dynamics of the yeast Shwachman-Diamond syndrome protein (Sdo1) on the ribosome and its implication in the 60S subunit maturation” (Protein & Cell, 2016).

The chains are these.
T1: Sdo1p, full-length (1-250) (S. cerevisiae, UniProt Q07953 1-250)
T1 construct: Sdo1p, the SBDS homologue of S. cerevisiae, full-length construct, residues 1-250; cloned into pET21b; also called Sdo1p-FL; FL; source: E. coli BL21 (DE3), purified (Ni-NTA, gel filtration); not shown: His6, C-terminal, kept
T1 sequence (looked up): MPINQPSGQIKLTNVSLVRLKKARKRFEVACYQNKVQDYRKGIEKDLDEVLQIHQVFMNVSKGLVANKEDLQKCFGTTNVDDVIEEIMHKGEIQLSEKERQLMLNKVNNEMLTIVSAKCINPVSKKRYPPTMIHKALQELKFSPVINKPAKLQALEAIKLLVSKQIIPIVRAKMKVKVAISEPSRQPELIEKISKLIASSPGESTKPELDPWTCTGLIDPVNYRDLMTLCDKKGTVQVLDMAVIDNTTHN

B1: uL16 (RPL10), in the 60S subunit (natural protein, S. cerevisiae (endogenous in S288C), UniProt P41805 1-221, looked up)
chain: MARRPARCYRYQKNKPYPKSRYNRAVPDSKIRIYDLGKKKATVDEFPLCVHLVSNELEQLSSEALEAARICANKYMTTVSGRDAFHLRVRVHPFHVLRINKMLSCAGADRLQQGMRGAWGKPHGLAARVDIGQIIFSVRTKDSNKDVVVEGLRRARYKFPGQQKIILSKKWGFTNLDRPEYLKKREAGEVKDDGAFVKFLSKKGSLENNIREFPEYFAAQA
notes: ribosomal protein uL16 (RPL10) of S. cerevisiae; met Sdo1p as a subunit of the purified 60S particle, not as an isolated protein; source: endogenous, part of the 60S subunit purified from S. cerevisiae S288C
B2: Sdo1p, full-length (1-250) (natural protein)
chain: T1 sequence (looked up)
B3: Sdo1p domain I-II (1-169) (domain or fragment, S. cerevisiae, UniProt Q07953 1-169, looked up)
chain: MPINQPSGQIKLTNVSLVRLKKARKRFEVACYQNKVQDYRKGIEKDLDEVLQIHQVFMNVSKGLVANKEDLQKCFGTTNVDDVIEEIMHKGEIQLSEKERQLMLNKVNNEMLTIVSAKCINPVSKKRYPPTMIHKALQELKFSPVINKPAKLQALEAIKLLVSKQIIPI
notes: Sdo1p of S. cerevisiae, domains I-II, residues 1-169; cloned into pET21b; also called domains I-II; Sdo1p-I-II; source: E. coli BL21 (DE3), purified (Ni-NTA, gel filtration); not shown: His6, C-terminal, kept

Assay [1] concerns the target The truncated domain I, II and II-III. The experiment in a line: BLI; Octet RED96; Sdo1p variants (2 μg/mL) immobilised on Anti-Penta-HIS biosensors; 60S subunit 1.75-48 nmol/L in 25 mmol/L Hepes-KOH pH 7.5, 100 mmol/L KCl, 2.5 mmol/L MgCl2; association and dissociation 240 s each.
Assay [2] concerns the target T1, Sdo1p, full-length (1-250). The description is as above.
For assay [3], the target named is Sdo1p domain I-II (1-169) (S. cerevisiae) (UniProt Q07953). The description is as above.
In assay [4] the target is T1, Sdo1p, full-length (1-250). The experiment in a line: cross-linking; CX-MS: 50 pmol 60S with full-length or truncated Sdo1p at 1:20, 25 mmol/L Hepes-KOH pH 7.5, 100 mmol/L KCl, 2.5 mmol/L MgCl2; DSS or BS3, room temperature 1 h; trypsin, LC-MS/MS, pLink FDR <5%. To be noted: both partners purified.
Assay [5] deals with mature 60S ribosomal subunit of S. cerevisiae (S. cerevisiae (endogenous in S288C)) (UniProt P41805). The assay can be described thus: cryo-EM structure; 60S subunit (100 nmol/L) with 20-fold (dimers, 14 Å map) or 10-fold (monomers, 9 Å map) excess of full-length Sdo1p, 30°C 15 min, without crosslinking.
The target in assay [6] is B1. The assay can be described thus: cross-linking; CX-MS: 50 pmol 60S with full-length or truncated Sdo1p at 1:20, 25 mmol/L Hepes-KOH pH 7.5, 100 mmol/L KCl, 2.5 mmol/L MgCl2; DSS or BS3, room temperature 1 h; trypsin, LC-MS/MS, pLink FDR <5%. The conditions noted are these: both partners purified.

In general, Kd refers to the equilibrium constant for the complex coming apart. Usually stoichiometry N stands for the number of molecules, sites or subunits per partner or assembly.

As to “mature 60S ribosomal subunit of S. cerevisiae (from UniProt P41805 1-221) (complex)”, the Kd in assay [1] is 25 to 40 nM; in assay [2] it was 18 nM; in assay [3], 15 nM. Consider B1, for which the binding result in assay [4] is “binds”. Take B2: the stoichiometry N in assay [5] was 1.

With B3, the binding result in assay [6] is recorded as “binds”.
